Laboratory results as given in US20250367313A1 (MULTITUDE, published 2025).

Columns and labels:
human MUC18 = target: T1, human MUC18 (human, UniProt P43121 24-646); experiment: cell-based or functional assay
T1 sequence: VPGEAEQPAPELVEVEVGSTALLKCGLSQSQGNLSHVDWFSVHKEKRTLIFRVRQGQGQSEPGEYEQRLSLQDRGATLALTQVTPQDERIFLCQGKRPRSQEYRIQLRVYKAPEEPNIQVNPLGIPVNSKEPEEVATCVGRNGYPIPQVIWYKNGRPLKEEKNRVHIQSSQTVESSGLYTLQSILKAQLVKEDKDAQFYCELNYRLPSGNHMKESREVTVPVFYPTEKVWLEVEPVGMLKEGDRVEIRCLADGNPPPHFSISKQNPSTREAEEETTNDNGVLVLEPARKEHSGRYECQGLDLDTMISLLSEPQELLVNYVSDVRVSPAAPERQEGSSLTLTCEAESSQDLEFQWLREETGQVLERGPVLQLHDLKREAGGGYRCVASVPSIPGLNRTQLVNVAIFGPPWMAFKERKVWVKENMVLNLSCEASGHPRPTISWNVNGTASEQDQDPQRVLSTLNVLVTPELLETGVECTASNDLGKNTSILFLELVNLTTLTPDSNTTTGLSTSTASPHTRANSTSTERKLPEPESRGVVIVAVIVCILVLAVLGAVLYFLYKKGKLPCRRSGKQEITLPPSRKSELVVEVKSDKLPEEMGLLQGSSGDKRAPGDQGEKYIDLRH

[1] = target: T2, recombinant MUC18 protein (rProtein) (Homo sapiens (Human), UniProt P43121 24-559); experiment: ELISA titration, antibody with varying concentrations of recombinant MUC18 protein
T2 sequence: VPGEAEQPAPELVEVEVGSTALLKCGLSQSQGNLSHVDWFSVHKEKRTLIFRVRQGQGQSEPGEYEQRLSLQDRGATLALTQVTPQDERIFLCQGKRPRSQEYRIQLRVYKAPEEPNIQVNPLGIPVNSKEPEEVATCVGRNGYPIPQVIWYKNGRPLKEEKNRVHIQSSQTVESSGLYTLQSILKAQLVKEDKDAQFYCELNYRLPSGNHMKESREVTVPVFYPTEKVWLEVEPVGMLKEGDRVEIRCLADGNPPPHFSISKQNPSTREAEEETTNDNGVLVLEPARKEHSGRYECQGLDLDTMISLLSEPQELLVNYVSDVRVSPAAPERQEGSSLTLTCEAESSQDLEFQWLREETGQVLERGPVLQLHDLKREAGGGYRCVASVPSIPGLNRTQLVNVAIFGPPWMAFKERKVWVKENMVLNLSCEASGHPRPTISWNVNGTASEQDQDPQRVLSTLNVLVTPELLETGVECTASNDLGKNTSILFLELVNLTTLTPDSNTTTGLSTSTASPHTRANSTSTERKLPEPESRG
Procedure: Antibodies were incubated with varying concentrations of recombinant MUC18 protein (rProtein).

| Binder | Binding affinity [1] | other results |
| --- | --- | --- |
| J253-vc-MMAE (antibody, V domains shown, maleimidocaproyl-Val-Cit-PAB-MMAE coupled to the antibody by a thiol-based reaction; sites and drug load not stated) VH: QVQLQQSGAELVKPGASVKLSCKASGYTFTSYDINWVRQRPEQGLEWIGWIFPGDGSTDYNEKFKGKATLTTDKSSSTAYMQLSRLTSEDSAVYFCARYHFFDNWGQGTTLTVSS VL: DIVITQDELSNPVTSGESVSISCRSSKSLLYKDGKTYLSWFLQRPGQSPQLLIYLMSTRASGVSDRFSGSGSGTDFTLEISRVKAEDVGVYYCQQLVEYPYTFGGGTKLEIK | – | IC50 of cell viability, GAK cells (human MUC18): 297 pM; IC50 of cell viability, HMV-II cells (human MUC18): 103 pM; IC50 of cell viability, SK-MEL-2 cells (human MUC18): 115 pM |
| J253 (antibody, V domains shown, also called anti-MUC18 antibody (J253)) VH: QVQLQQSGAELVKPGASVKLSCKASGYTFTSYDINWVRQRPEQGLEWIGWIFPGDGSTDYNEKFKGKATLTTDKSSSTAYMQLSRLTSEDSAVYFCARYHFFDNWGQGTTLTVSS VL: DIVITQDELSNPVTSGESVSISCRSSKSLLYKDGKTYLSWFLQRPGQSPQLLIYLMSTRASGVSDRFSGSGSGTDFTLEISRVKAEDVGVYYCQQLVEYPYTFGGGTKLEIK | 0.39 nM | – |
| CL070333 (antibody, V domains shown, also called anti-MUC18 antibody CL070333) VH: QVQLQQSGPELVKPGTSVKISCKASGFTFTGYYLHWLKQRPGQGLEWIGWIYPGNVNTEFNEKFKGQATLTADKSSSTAYMQLSSLTSEDSAVYFCARSGYFASSYEFAYWGQGTLVTVSA VL: DIQMTQSPASLSASVGETVTITCRASENIYSYLAWYQQKQGKSPQLLVYNAKTLAEGVPSRFSVSGSGTHFSLKINSLQPEDFGSYYCQHHYGTPLTFGAGTKLELK | 12.5 nM | – |
| CL070324 (antibody, V domains shown, also called anti-MUC18 antibody CL070324) VH: EVLLQQSGPELVKPGASVKIPCKASGYTFTDYNMDWVKQSHGKSLEWIGDINPNNGATLYNQNFRGKATLTVDKSSSTAYMELRSLTSEDTAVYYCTRSGYDDYYALDYWGQGTSVTVSS VL: QTVLTQSPAIMSASLGEEITLTCSASSSVGYMHWYQQKSGTSPKLLIYSTSNLASGVPSRFSGRGSGTFYSLTISTVEAEDAADYYCHQWSNYPSTFGTGTKLELK | 50 nM | – |

The next lines start with results.

| Binding affinity [1] | Binder | other results |
| --- | --- | --- |
| 0.39 nM | CL070336 (antibody, V domains shown, also called anti-MUC18 antibody CL070336) VH: DVQLQESGPDLVKPYQSLSLTCTVTGYSITSGYSWHWIRQFPGNKLEWLGYMHYSATPNYNPSLKSRISITRDTSKNQFFLQLNSVTTEDTATYYCSRSLNWDVLDYWGQGTTLIVSS VL: DIVLTQSPAYLPVSLGQRATISCRASKSVRTSGYNYLHWYQQKPGQPPKLLIYLASNPESGVPGRFSGSGSGTDFTLNIHPVEEEDSATYYCQHSREFPFTFGGGTQLEIK | – |
| 1.56 nM | CL070349 (antibody, V domains shown, also called anti-MUC18 antibody CL070349) VH: DVQLQESGPGLVKPSQSLSLTCSVTGYSITSGFYWNWIRQLPGNKLEWLGYINFGGTNNYNPSLKIRGSITRDTSKNQFFLKLNSVTTEDTATYYCARGGNDGGFTYWGQGTLVTVSA VL: ENVLTQSPAIVAASLGQKVTMTCRASSSVSSTYFHWYQQKSGASPKPLLHRTSNLASGVPARFSGSGSGTSYSLTISSVEAEDDATYYCHQWSGYPYTFGGGTKLEIK | – |
| 3.12 nM | CL070370 (antibody, V domains shown, also called anti-MUC18 antibody CL070370) VH: QIQLVQSGPELKKPGETVKISCKTSGYTFTDYSMHWVKQAPRKGLKWMGWINTETGEPTYADDFKGRFAFSLETSASTAYLQINNLRNEDTATYFCVSYDYDAVSYWGQGTLVTVSA VL: DIVMTQSHKFMSTSVGDRVNITCKASQYVGAAVAWYQQKPGQSPKLLIYWASTRHTGVPDRFTGSGSGTDFTLTINNVQSEDLADYFCQQYGNYRTFGGGTKLEIK | – |
| 0.39 nM | CL070335 (antibody, V domains shown, also called anti-MUC18 antibody CL070335) VH: DVQLQESGPDLVKPSQSLSLTCTVTGYSITSGYSWHWIRQFPGNKLEWMGYIHYSTTTNYNPSLKSRISITRDTSKNQFFLQLSSVTTEDTATYFCSRSLNWDVLDYWGQGTTLIVSS VL: DIVLTQSPAYLPVSLGQRATISCRASKSVRTSGYSYLHWYQQKPGQPPKLLIYLASNLESGVPDRFSGSGSGTDFTLNIHPVEEEDAATYYCQHTREFPFTFGGGTKLEIK | – |
| 50 nM | CL070341 (antibody, V domains shown, also called anti-MUC18 antibody CL070341) VH: EVQLVESGGDLVRPGGSLKLSCAASGFTFSTYGMSWVRQSPDKRLEWVATINSRASYTYYPDSVKGRFTISRDNAKNTLYLQMSSLKSEDTGLYFCARHRRDWDSYYAMDYWGQGTSVTVSS VL: NIMLTQSPSSLAVSTGDKVTMNCKSSQSVLYNSNQKNYLAWYQQKPGQSPTLLIYWASTSESGVPDRFTGSGSGTDFTLTISSVQAEDLAVYYCHQYLSSWTFGGGTKLEIK | – |
| 0.19 nM | CL070350 (antibody, V domains shown, also called anti-MUC18 antibody CL070350) VH: AVQLVESGGDLLRPGGSLKLSCVASGFTFNNYGMSWVRQTPDKRLEWVATINRGGSYTYYTDSVKGRFTISRDNAKKTLYLQMSSLKSEDTAMYYCARHRRDWDSYYAMDYWGQGTSVTVSS VL: NIMMTQSPSSLAVSAGDKVAMSCKSSRSVLYNSNQKNYLAWYQLKPGQSPKLLIYWASTRESGVPDRFTGSGSGTDFTLTISSVQAEDLAVYYCHQYLSSWTFGGGTKVEIK | – |
